Assay results: publication PMC12124957 (Nature chemical biology, 2025)

Target: the molecule itself
Assay: light scattering at 340 nm

B1: ^ΔCFtsH (T. maritima FtsH variant devoid of the N-terminal TM domain (residues 1–146) and of Cys residues) (domain or fragment, UniProt Q9WZ49 147-610, looked up)
chain: ATMYKPSGNKRVTFKDVGGAEEAIEELKEVVEFLKDPSKFNRIGARMPKGILLVGPPGTGKTLLARAVAGEANVPFFHISGSDFVELFVGVGAARVRDLFAQAKAHAPSIVFIDEIDAVGRHRGAGLGGGHDEREQTLNQLLVEMDGFDSKEGIIVMAATNRPDILDPALLRPGRFDKKIVVDPPDMLGRKKILEIHTRNKPLAEDVNLEIIAKRTPGFVGADLENLVNEAALLAAREGRDKITMKDFEEAIDRVIAGPARKSKLISPKEKRIIAYHEAGHAVVSTVVPNGEPVHRISIIPRGYKALGYTLHLPEEDKYLVSRNELLDKLTALLGGRAAEEVVFGDVTSGAANDIERATEIARNMVSQLGMSEELGPLAWGKEEQEVFLGKEITRLRNYSEEVASKIDEEVKKIVTNSYERAKEIIRKYRKQLDNIVEILLEKETIEGDELRRILSEEFEKVVE
- koff: ≥ 1.6 s⁻¹
